For this test, the target named is human GPC3 recombinant protein (human) (UniProt P51654). The test is described as follows: BLI (ForteBio), antibody 5 ug/ml on anti-human IgG Fc sensor, GPC3 62.5-1000 nM. A general note: In BLI a coated tip is dipped into the sample, and binding shifts an interference pattern.

Turning to hGC33(Codrituzumab) (antibody), the Kd (commonly a measure of binding affinity in units of concentration) was 1.74 nM; the koff (as a rule, the first-order rate constant of dissociation) is 0.00024 s⁻¹; the kon (commonly a measure of how fast the partners come together) worked out at 141000 M⁻¹ s⁻¹.
